From publication PMC7367838, “Engineered CRISPR/Cas9 enzymes improve discrimination by slowing DNA cleavage to allow release of off-target DNA”

B1: sgRNA + on-target 55-bp DNA (mixed)
RNA: GACGCAUAAAGAUGAGACGCGUUUUAGAGCUAUGCUGUUUUGGAAACAAAACAGCAUAGCAAGUUAAAAUAAGGCUAGUCCGUUAUCAACUUGAAAAAGUGGCACCGAGUCGGUGCUUUUUUUGGAUC
DNA 1: AGCTGACGTTTGTACTCCAGCGTCTCATCTTTATGCGTCAGCAGAGATTTCTGCT
DNA 2: AGCAGAAATCTCTGCTGACGCATAAAGATGAGACGCTGGAGTACAAACGTCAGCT
B2: sgRNA + off-target 55-bp DNA (3-bp PAM-distal mismatch) (mixed)
RNA: GACGCAUAAAGAUGAGACGCGUUUUAGAGCUAUGCUGUUUUGGAAACAAAACAGCAUAGCAAGUUAAAAUAAGGCUAGUCCGUUAUCAACUUGAAAAAGUGGCACCGAGUCGGUGCUUUUUUUGGAUC
DNA 1: AGCTGACGTTTGTACTCCAGCGTCTCATCTTTATGCCAGAGCAGAGATTTCTGCT
DNA 2: AGCAGAAATCTCTGCTCTGGCATAAAGATGAGACGCTGGAGTACAAACGTCAGCT

Assays:
Conditions in all cases: protein: recombinant; tags: His6-MBP removed by TEV; label: 32P or 6-FAM for cleavage; tCo (position not in material) for unwinding; guide RNA (S25+S26 joined) / target strand / non-target strand; DNA duplex blunt
SpCas9 [1] = target: T1, SpCas9 (Streptococcus pyogenes, UniProt Q99ZW2 1-1368); experiment: stopped-flow and cleavage kinetics, global fit; 1/K1, initial binding step; bracketed value, footnote 3 not in material, may be fixed or from earlier work; Reaction buffer, salt, pH and temperature not in the material; Mg2+ added to start cleavage, omitted for pre-equilibration
T1 sequence (Q99ZW2 whole entry): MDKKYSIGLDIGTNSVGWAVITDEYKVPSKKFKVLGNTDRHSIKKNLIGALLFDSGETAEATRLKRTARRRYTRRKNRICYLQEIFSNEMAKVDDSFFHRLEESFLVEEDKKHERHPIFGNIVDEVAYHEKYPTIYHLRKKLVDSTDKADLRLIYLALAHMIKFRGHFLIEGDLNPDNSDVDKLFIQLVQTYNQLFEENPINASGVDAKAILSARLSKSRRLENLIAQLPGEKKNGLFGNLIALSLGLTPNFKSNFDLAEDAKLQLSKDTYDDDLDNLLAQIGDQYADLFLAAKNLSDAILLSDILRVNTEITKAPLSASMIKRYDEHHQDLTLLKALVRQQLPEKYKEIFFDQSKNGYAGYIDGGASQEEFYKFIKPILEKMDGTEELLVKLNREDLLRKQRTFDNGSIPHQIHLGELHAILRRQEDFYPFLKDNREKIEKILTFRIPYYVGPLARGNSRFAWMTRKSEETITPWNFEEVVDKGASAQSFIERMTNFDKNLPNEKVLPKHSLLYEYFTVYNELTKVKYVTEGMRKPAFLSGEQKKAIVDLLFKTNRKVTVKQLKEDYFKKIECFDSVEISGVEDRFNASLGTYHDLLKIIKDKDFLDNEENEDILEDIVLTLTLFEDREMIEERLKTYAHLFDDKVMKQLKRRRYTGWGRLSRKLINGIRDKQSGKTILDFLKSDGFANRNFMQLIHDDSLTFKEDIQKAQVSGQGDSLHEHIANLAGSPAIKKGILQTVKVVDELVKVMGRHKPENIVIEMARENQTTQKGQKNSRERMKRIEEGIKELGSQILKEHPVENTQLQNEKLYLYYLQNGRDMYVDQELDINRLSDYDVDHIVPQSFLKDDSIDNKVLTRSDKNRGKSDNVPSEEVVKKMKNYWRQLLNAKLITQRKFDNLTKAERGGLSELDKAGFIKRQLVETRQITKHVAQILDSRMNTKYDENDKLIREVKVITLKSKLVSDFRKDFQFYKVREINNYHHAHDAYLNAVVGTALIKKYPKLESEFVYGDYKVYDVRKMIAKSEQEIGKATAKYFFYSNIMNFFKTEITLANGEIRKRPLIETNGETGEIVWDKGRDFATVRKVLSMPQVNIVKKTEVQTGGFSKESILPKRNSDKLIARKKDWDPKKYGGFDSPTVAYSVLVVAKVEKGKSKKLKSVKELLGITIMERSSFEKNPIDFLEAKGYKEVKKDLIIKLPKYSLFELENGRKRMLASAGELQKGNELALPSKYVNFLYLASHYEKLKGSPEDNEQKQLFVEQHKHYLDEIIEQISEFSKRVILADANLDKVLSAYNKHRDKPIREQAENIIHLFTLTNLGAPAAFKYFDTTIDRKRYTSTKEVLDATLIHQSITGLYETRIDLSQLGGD

SpCas9 [2] = target: T1, SpCas9; experiment: stopped-flow and cleavage kinetics, global fit; Kd,net including R-loop formation; bracketed value, footnote 3 not in material, may be fixed or from earlier work; Reaction buffer, salt, pH and temperature not in the material; Mg2+ added to start cleavage, omitted for pre-equilibration
SpCas9 [3] = target: T1, SpCas9; experiment: stopped-flow and cleavage kinetics, global fit; 1/K1, initial binding step; Reaction buffer, salt, pH and temperature not in the material; Mg2+ added to start cleavage, omitted for pre-equilibration
SpCas9 [4] = target: T1, SpCas9; experiment: stopped-flow and cleavage kinetics, global fit; Kd,net including R-loop formation; Reaction buffer, salt, pH and temperature not in the material; Mg2+ added to start cleavage, omitted for pre-equilibration

Binder	Kd (SpCas9 [1]) [nM]	Kd (SpCas9 [2]) [nM]	Kd (SpCas9 [3]) [nM]	Kd (SpCas9 [4]) [nM]
B1	3	1		
B2			24	8.1
